The target in the test is T1, mouse interleukin 11 receptor alpha chain 1 (mouse, UniProt Q64385 24-372).
T1 sequence (looked up): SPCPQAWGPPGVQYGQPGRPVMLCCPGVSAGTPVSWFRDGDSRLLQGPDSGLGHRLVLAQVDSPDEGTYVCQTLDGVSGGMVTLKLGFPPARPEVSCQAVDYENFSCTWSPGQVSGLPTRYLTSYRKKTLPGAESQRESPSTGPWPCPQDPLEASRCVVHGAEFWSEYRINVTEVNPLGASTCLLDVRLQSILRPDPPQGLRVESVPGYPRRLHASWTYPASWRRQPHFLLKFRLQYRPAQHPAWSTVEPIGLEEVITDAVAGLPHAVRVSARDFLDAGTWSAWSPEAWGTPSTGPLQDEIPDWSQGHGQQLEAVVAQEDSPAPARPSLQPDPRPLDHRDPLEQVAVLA
Nature of the test: SPR.

B1: recombinant mouse IL11 (ligand, UniProt P47873 22-199, looked up)
chain: PGPPAGSPRVSSDPRADLDSAVLLTRSLLADTRQLAAQMRDKFPADGDHSLDSLPTLAMSAGTLGSLQLPGVLTRLRVDLMSYLRHVQWLRRAGGPSLKTLEPELGALQARLERLLRRLQLLMSRLALPQAAPDQPVIPLGPPASAWGSIRAAHAILGGLHLTLDWAVRGLLLLKTRL
B1 returned a Kd of 94 nM.

B2: recombinant human interleukin 11 (ligand, UniProt P20809 22-199, looked up)
chain: PGPPPGPPRVSPDPRAELDSTVLLTRSLLADTRQLAAQLRDKFPADGDHNLDSLPTLAMSAGALGALQLPGVLTRLRADLLSYLRHVQWLRRAGGSSLKTLEPELGTLQARLDRLLRRLQLLMSRLALPQPPPDPPAPPLAPPSSAWGGIRAAHAILGGLHLTLDWAVRGLLLLKTRL
In turn, B2 returned a Kd of 72 nM.

Source of the values: paper doi:10.1101/830018 (bioRxiv, 2019).
